Target: poly(ADP-ribosyl)ated GST-Sp1-8xHis (UniProt P08047)
Assay: EMSA
Conditions: after PARP-1 + 200 uM NAD+ + nicked DNA; approximately 71% reduction; EMSA in buffer D (5 mM HEPES, 10% glycerol, 0.05 mM EDTA, 0.125 mM PMSF), 25 ng poly(dI-dC) (omitted for recombinant Sp1), room temperature 5 min; pH not …

Chain of UniProt P08047 (P08047 whole entry): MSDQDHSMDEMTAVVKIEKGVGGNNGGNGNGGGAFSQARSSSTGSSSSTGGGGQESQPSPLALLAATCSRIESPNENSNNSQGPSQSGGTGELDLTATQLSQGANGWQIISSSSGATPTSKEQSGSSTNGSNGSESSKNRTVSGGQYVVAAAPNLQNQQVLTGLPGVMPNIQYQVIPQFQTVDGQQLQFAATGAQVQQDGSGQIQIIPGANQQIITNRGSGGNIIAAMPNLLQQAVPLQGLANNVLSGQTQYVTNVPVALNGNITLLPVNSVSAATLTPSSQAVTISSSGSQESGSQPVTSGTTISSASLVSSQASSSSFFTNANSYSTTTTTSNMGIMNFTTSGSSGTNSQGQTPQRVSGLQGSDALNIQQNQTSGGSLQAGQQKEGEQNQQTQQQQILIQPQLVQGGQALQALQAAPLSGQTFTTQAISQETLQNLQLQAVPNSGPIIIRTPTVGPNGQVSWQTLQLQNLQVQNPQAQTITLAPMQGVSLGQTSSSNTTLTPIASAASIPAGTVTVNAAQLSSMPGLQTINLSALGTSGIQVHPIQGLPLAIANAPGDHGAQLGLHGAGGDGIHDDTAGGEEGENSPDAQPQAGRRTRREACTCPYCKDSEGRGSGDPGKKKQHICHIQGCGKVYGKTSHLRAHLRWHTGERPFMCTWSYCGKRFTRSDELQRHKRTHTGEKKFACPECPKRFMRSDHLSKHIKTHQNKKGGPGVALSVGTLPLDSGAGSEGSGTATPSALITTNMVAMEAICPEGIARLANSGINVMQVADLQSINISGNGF

Sequence “GATCATATCTGCGGGGCGGGGCAGACACAG (double strand) [Sp1 oligonucleotide]” has a binding signal (% of unmodified Sp1) of 29.
